Reference: patent US20140087995A1 (published 2014)
Where a chain is given by its changes, count along the chain named. Like-named read-outs stand apart in the source and are kept apart here. Each block holds one binder with its values, some of them ahead of it. Numbered stars: 1 amine (or outer) side, 2 acyl side, 3 side chain; on linkers, the order of the positions; unused ones are H or OH. Bridge positions count the residues as written; N and C are the ends. * marks the point of attachment. C20 diacid = O=C(O)CCCCCCCCCCCCCCCCCCC(=O)*; γGlu = O=C(O)[C@H](CCC(=O)[*:2])N[*:1]

Tests used:
Assay in all cases: cell-based or functional assay
[1] = target: T1, human calcitonin receptor (human, UniProt P30988 25-474)
T1 sequence (looked up): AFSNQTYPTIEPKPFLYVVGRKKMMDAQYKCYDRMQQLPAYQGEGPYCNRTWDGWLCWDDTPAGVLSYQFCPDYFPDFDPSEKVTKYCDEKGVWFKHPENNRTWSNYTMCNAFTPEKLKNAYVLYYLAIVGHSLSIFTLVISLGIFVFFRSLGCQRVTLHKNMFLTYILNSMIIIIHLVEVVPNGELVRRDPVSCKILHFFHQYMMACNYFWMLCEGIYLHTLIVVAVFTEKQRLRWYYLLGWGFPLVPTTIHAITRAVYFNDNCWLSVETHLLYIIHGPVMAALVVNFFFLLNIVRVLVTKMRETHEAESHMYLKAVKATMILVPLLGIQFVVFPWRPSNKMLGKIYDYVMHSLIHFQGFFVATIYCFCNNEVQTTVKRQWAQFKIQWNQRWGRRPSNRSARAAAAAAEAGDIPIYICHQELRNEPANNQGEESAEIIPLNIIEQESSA

[2] = target: T2, human calcitonin receptor (human, UniProt P30988 25-474); remark: listed apart in the source
T2 sequence (looked up): T1 sequence (looked up)

[3] = target: T3, human amylin 3(a) receptor (human calcitonin receptor co-expressed with RAMP-3) (human, UniProt P30988 25-474; O60896 24-148, limits assumed)
T3 sequence (looked up) 1: T1 sequence (looked up)
T3 sequence (looked up) 2: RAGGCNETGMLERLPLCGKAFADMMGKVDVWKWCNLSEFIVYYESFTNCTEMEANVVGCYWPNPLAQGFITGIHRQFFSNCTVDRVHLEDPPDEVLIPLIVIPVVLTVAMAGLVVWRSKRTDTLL

hCTR funct. EC50 [1]: 2.68 nM
B2: N^α1-[(4S)-4-carboxy-4-(19-carboxynonadecanoylamino)butanoyl]-[Arg17,Pro21,Pro27,His34]-h-amylin (peptide)
peptide: KCNTATCATQRLANFLRHSSPNFGAIPSSTNVGHNTY
modifications: N-terminal alpha-amino acylated with C20 diacid-gGlu; Cys2-Cys7 disulfide; C-terminal amide
notes: analogue of human amylin; also called compound 40

hCTR funct. EC50 [1]: 2.52 nM
B4: N^α1-[(4S)-4-carboxy-4-(19-carboxynonadecanoylamino)butanoyl]-[Arg17,Pro21,Pro27,Arg34]-h-amylin (peptide)
peptide: B2 peptide with H34R
modifications: N-terminal alpha-amino acylated with C20 diacid-gGlu; Cys2-Cys7 disulfide; C-terminal amide
notes: analogue of human amylin; also called compound 39

Ratio hCT/hAmylin funct. [2]: 10
hCTR funct. EC50 [2]: 0.818 nM
hAmylin-R funct. EC50 [3]: 0.082 nM
B6: N{-1}-[(4S)-4-carboxy-4-(19-carboxynonadecanoylamino)butanoyl]-Gly[Arg1,His14,Arg17,Pro21,Pro27]-h-amylin (peptide)
peptide: {C20 diacid-γGlu}-GRCNTATCATQRLAHFLRHSSPNFGAIPSSTNVGSNTY-NH2
modifications: disulfide 3-8
SMILES: CC[C@H](C)[C@H](NC(=O)[C@H](C)NC(=O)CNC(=O)[C@H](Cc1ccccc1)NC(=O)[C@H](CC(N)=O)NC(=O)[C@@H]1CCCN1C(=O)[C@H](CO)NC(=O)[C@H](CO)NC(=O)[C@H](Cc1c[nH]cn1)NC(=O)[C@H](CCCNC(=N)N)NC(=O)[C@H](CC(C)C)NC(=O)[C@H](Cc1ccccc1)NC(=O)[C@H](Cc1c[nH]cn1)NC(=O)[C@H](C)NC(=O)[C@H](CC(C)C)NC(=O)[C@H](CCCNC(=N)N)NC(=O)[C@H](CCC(N)=O)NC(=O)[C@@H](NC(=O)[C@H](C)NC(=O)[C@@H]1CSSC[C@H](NC(=O)[C@H](CCCNC(=N)N)NC(=O)CNC(=O)CC[C@H](NC(=O)CCCCCCCCCCCCCCCCCCC(=O)O)C(=O)O)C(=O)N[C@@H](CC(N)=O)C(=O)N[C@@H]([C@@H](C)O)C(=O)N[C@@H](C)C(=O)N[C@@H]([C@@H](C)O)C(=O)N1)[C@@H](C)O)C(=O)N1CCC[C@H]1C(=O)N[C@@H](CO)C(=O)N[C@@H](CO)C(=O)N[C@H](C(=O)N[C@@H](CC(N)=O)C(=O)N[C@H](C(=O)NCC(=O)N[C@@H](CO)C(=O)N[C@@H](CC(N)=O)C(=O)N[C@H](C(=O)N[C@@H](Cc1ccc(O)cc1)C(N)=O)[C@@H](C)O)C(C)C)[C@@H](C)O
notes: also called compound 99

Continued, binder first:

B1: N^α1-[2-[2-[2-[[2-[2-[2-[[(4S)-4-carboxy-4-(19-carboxynonadecanoylamino)butanoyl]amino]ethoxy]ethoxy]acetyl]amino]ethoxy]ethoxy]acetyl]-[Arg17,Pro21,Pro27]-h-am … (peptide)
peptide: B2 peptide with H34S
modifications: N-terminal alpha-amino acylated with C20 diacid-gGlu-2xOEG; Cys2-Cys7 disulfide; C-terminal amide
notes: analogue of human amylin; also called compound 24
hCTR funct. EC50 [1]: 10 nM

B3: N^α1-[2-[2-[2-[[2-[2-[2-[[(4S)-4-carboxy-4-(19-carboxynonadecanoylamino)butanoyl]amino]ethoxy]ethoxy]acetyl]amino]ethoxy]ethoxy]acetyl]-[Glu14,Arg17,Pro21,Pro27 … (peptide)
peptide: B2 peptide with N14E, H34S
modifications: N-terminal alpha-amino acylated with C20 diacid-gGlu-2xOEG; Cys2-Cys7 disulfide; C-terminal amide
notes: analogue of human amylin; also called compound 19
hCTR funct. EC50 [1]: 5.32 nM

B5: N^-1-[(4S)-4-carboxy-4-(19-carboxynonadecanoylamino)butanoyl]-Gly[Arg1,His14,Arg17,Pro21,Pro27,Pro34]-h-amylin (peptide)
peptide: {C20 diacid-γGlu}-GRCNTATCATQRLAHFLRHSSPNFGAIPSSTNVGPNTY-NH2
modifications: disulfide 3-8
SMILES: CC[C@H](C)[C@H](NC(=O)[C@H](C)NC(=O)CNC(=O)[C@H](Cc1ccccc1)NC(=O)[C@H](CC(N)=O)NC(=O)[C@@H]1CCCN1C(=O)[C@H](CO)NC(=O)[C@H](CO)NC(=O)[C@H](Cc1c[nH]cn1)NC(=O)[C@H](CCCNC(=N)N)NC(=O)[C@H](CC(C)C)NC(=O)[C@H](Cc1ccccc1)NC(=O)[C@H](Cc1c[nH]cn1)NC(=O)[C@H](C)NC(=O)[C@H](CC(C)C)NC(=O)[C@H](CCCNC(=N)N)NC(=O)[C@H](CCC(N)=O)NC(=O)[C@@H](NC(=O)[C@H](C)NC(=O)[C@@H]1CSSC[C@H](NC(=O)[C@H](CCCNC(=N)N)NC(=O)CNC(=O)CC[C@H](NC(=O)CCCCCCCCCCCCCCCCCCC(=O)O)C(=O)O)C(=O)N[C@@H](CC(N)=O)C(=O)N[C@@H]([C@@H](C)O)C(=O)N[C@@H](C)C(=O)N[C@@H]([C@@H](C)O)C(=O)N1)[C@@H](C)O)C(=O)N1CCC[C@H]1C(=O)N[C@@H](CO)C(=O)N[C@@H](CO)C(=O)N[C@H](C(=O)N[C@@H](CC(N)=O)C(=O)N[C@H](C(=O)NCC(=O)N1CCC[C@H]1C(=O)N[C@@H](CC(N)=O)C(=O)N[C@H](C(=O)N[C@@H](Cc1ccc(O)cc1)C(N)=O)[C@@H](C)O)C(C)C)[C@@H](C)O
Ratio hCT/hAmylin funct. [2]: 2.9
hCTR funct. EC50 [2]: 0.179 nM
hAmylin-R funct. EC50 [3]: 0.062 nM
